From patent US20230272113A1

These binders were tested against human FLT3 on transfected CHO cells (human) (UniProt P36888) (assay: FACS, scFv on CHO-human FLT3 cells pre-incubated with FLT3 ligand (competitor)).

Row | Binder | median [+ligand]/median [w/o ligand]*100 [%]
1 | FL-48 (scFv) scFv: QVTLKESGPMLVKPTETLTLTCTFSGFSLRNARMGVSWIRQPPGKCLEWLAHIFWNDEKSYSTSLKSRLTISKDTSKSQVVLTMTNMDPVDTATYYCARIPYYGSGSYNYGMDVWGQGTTVTVSSGGGGSGGGGSGGGGSDIQMTQSPSSLSASVGDRVTITCRASQGIRNDLGWYQQKPGKAPKRLIYAASSLQSGVPSRFSGSGSGTEFTLTISSLQPEDFATYYCLQHNTYPLTFGCGTKVDIK | > 75
2 | FL-43 (scFv) scFv: QVTLKESGPVLVKPTETLTLTCTVSGFSFRNARMGVSWIRQPPGKCLEWLAHIFSNDEKSYSTSLKSRLTISKDTSKSQVVLTLTNMDPVDTATYFCARMPEYSSGWSGAFDIWGQGTMVTVSSGGGGSGGGGSGGGGSDIQMTQSPSSLSASVGDRVTITCRASQGIRNDLVWYQQKPGKAPKRLIYGTSTLQSGVPSRFSGSGSGTEFTLTISSLQPEDFATYYCLQHNSYPLTFGCGTKVEIK | > 75
3 | FL-44 (scFv) scFv: QVTLKESGPVLVKPTETLTLTCTVSGFSFRNARMGVSWIRQPPGKCLEWLAHIFSNDEKSYSTSLKSRLTISKDTSKSQVVLTLTNMDPVDTATYFCARMPEYSSGWSGAFDIWGQGTMVTVSSGGGGSGGGGSGGGGSDIQMTQSPSSLSASVGDRVTITCRTSQGIRNDLVWYQQKPGKAPKRLIYAASTLQSGVPSRFSGSGSGTEFTLTISSLQPEDFATYFCLQHYSYPLTFGCGTKVEIK | > 75
4 | FL-50 (scFv) scFv: QVTLKESGPTLVKPTETLTLTCTVSGFSLSNARMGVSWIRQPPGKCLEWLAHIFSNDEKSYSTSLKSRLTISKDTSKSQVVLTMTNMDPVDTATYYCARIPGYGGNFYYHYYGMDVWGQGTTVTVSSGGGGSGGGGSGGGGSDIQMTQSPSSLSASVGDRVTITCRASQGIRNDLAWYQQKPGKAPKRLIYAASTVQSGVPSRFSGSGSGTEFALTISSLQPEDFATYYCLQHNSFPWTFGCGTKVDIK | > 75

The remaining lines, values ahead:

Row | median [+ligand]/median [w/o ligand]*100 [%] | Binder
5 | > 75 | FL-46 (scFv) scFv: QVTLKESGPVLVKPTQTLTLTCTFSGFSLSNARMGVSWIRQPPGKCLEWLALIYWNDDKRYSPSLKSRLTITKDTSKNQVVLTMTNMDPVDTATYYCARMVGYGSGWYAYFDYWGQGTLVTVSSGGGGSGGGGSGGGGSDIQMTQSPSSLSASVGDRVTITCRASQGIRNDLGWYQQKPGKAPKRLIYAASSLQSGVPSRFSGSGSGTEFTLTISSLQPEDFATYYCLQHNSYPLTFGCGTKVEIK
6 | > 75 | FL-45 (scFv) scFv: QVTLKESGPALVKPTQTLTLTCTFSGFSLSNARMGVSWIRQPPGKCLEWLAHIFSNDEKSYRTSLKSRLTISKDTSKSQVVLTMTNMDPVDTATYYCARIVGYGSGWYAYFDYWGQGTLVTVSSGGGGSGGGGSGGGGSDIQMTQSPSSLSASVGDRVTITCRASQGIRNDLGWYQQKPGKAPKRLIYAASSLQSGVPSRFSGSGSGTEFTLTISSLQPEDFATYYCLQHNSYPLTFGCGTKVEIK
7 | > 75 | FL-47 (scFv) scFv: QVTLKESGPALVKPTQTLTLTCTFSGFSLSNARMGVSWIRQPPGKCLEWLAHIFSNDEKSYSTSLKSRLTISKDTSKSQVVLTMTDMDPEDTATYYCARIVGYGTGWYGFFDYWGQGILVTVSSGGGGSGGGGSGGGGSDIQMTQSPSSLSASVGDRVTITCRTSQGIRNDLGWYQQKPGKAPKRLIYAASSLQSGVPSRFSGSGSGTEFTLTISSLQPEDFATYYCLQHNSYPLTFGCGTKVEIK
8 | > 75 | FL-49 (scFv) scFv: QVTLKESGPTLVKPTETLTLTCTVSGFSLNNARMGVSWIRQPPGKCLEWLAHIFSNDEKSYSTSLKNRLTISKDSSKTQVVLTMTNVDPVDTATYYCARIVGYGTGWFGYFDYWGQGTQVTVSSGGGGSGGGGSGGGGSDIQMTQSPSSLSASVGDRVTITCRASQDIRTDLAWYQQKPGKAPKRLIYAASSLQSGVPSRFSGSGSGTEFTLTISSLQPEDFATYYCLQHNRYPLTFGCGTKVDIK
